The values below come from KR20220059888A (dated 2022).

The target of one assay is T1, 개 Tie2 단백질 (개 (dog), UniProt A0A8I3S0B4 27-1128).
T1 construct: whole, on cells; also called 다른 종 유래의 Tie2 단백질
Briefly: flow cytometry; HEK293T cells transfected with dog Tie2. On the technique in general: In flow cytometry, cells or beads pass a laser one at a time.

The next assay addresses T2, 랫 Tie2 단백질 (랫 (rat), UniProt A0ABK0L6J5 19-1116).
T2 construct: whole, on cells; also called 다른 종 유래의 Tie2 단백질
Briefly: flow cytometry; HEK293T cells transfected with rat Tie2.

A further assay concerns the target T3, 마우스 Tie2 단백질 (마우스 (mouse), UniProt Q02858 23-1122).
T3 construct: whole, on cells; also called 다른 종 유래의 Tie2 단백질
Put plainly: flow cytometry; HEK293T cells transfected with mouse Tie2.

T3 sequence (Q02858 23-1122): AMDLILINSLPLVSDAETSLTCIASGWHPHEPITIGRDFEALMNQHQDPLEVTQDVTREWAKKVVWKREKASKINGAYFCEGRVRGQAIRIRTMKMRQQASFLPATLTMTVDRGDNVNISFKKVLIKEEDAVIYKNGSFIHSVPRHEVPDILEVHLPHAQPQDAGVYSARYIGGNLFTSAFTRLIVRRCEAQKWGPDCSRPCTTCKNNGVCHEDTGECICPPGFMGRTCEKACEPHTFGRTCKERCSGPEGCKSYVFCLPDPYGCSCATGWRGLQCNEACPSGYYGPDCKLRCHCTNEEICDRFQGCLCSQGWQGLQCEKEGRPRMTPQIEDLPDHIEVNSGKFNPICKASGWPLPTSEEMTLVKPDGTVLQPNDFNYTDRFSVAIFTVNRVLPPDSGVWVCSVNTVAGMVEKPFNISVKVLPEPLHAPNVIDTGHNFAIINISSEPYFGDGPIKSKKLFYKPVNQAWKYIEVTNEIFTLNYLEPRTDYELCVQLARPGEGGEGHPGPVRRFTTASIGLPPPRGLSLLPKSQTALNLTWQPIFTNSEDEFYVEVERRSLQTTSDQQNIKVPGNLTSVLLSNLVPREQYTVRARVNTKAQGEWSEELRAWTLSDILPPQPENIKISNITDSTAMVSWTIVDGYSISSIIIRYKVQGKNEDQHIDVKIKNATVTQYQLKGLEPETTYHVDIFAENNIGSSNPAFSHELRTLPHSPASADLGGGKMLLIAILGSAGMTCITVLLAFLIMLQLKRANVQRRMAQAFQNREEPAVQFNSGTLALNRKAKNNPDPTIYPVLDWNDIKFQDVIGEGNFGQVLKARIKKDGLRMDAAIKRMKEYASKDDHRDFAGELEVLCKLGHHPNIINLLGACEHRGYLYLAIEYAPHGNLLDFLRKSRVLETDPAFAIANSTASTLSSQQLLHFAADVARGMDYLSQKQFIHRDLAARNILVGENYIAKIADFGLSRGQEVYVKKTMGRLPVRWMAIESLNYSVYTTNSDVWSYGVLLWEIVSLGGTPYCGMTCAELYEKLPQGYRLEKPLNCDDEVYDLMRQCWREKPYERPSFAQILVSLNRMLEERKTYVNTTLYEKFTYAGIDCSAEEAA

B1: Ang1mab2-1 (antibody, human IgG1, kappa, V domains shown)
VH: QVQLVESGGGVVQPGRSLRLSCAASGFTFSSYAMHWVRQAPGKGLEWVAVISYDGSNKYYADSVKGRFTISRDNSKNTLYLQMNSLRAEDTAVYYCARQYSGVFEYWGQGTLITVSS
VL: DIQMTQSPDSLAVSLGERATINCKSSQSVLYRSNNRNYLAWYQQKLGQPPQLLIYWASTRESGVPDRFSGSGSGADFTLTISSLQAEDVAVYYCQQYFSIPYTFGQGTKLEIKR
notes: also called 제2 기본 항체
Turning to B1, the binding result with 개 Tie2 단백질, in the assay with 랫 Tie2 단백질 and in the assay with 마우스 Tie2 단백질 was “no binding (tested: 5-g/ml (so in the source))” each time.
